Assay results as given in publication PMC5344783 (Molecular microbiology, 2017).

T1: EzrA-L-FLAG^3 (Streptococcus pneumoniae (strain D39 …, UniProt Q8DQE5 1-575))
T1 sequence: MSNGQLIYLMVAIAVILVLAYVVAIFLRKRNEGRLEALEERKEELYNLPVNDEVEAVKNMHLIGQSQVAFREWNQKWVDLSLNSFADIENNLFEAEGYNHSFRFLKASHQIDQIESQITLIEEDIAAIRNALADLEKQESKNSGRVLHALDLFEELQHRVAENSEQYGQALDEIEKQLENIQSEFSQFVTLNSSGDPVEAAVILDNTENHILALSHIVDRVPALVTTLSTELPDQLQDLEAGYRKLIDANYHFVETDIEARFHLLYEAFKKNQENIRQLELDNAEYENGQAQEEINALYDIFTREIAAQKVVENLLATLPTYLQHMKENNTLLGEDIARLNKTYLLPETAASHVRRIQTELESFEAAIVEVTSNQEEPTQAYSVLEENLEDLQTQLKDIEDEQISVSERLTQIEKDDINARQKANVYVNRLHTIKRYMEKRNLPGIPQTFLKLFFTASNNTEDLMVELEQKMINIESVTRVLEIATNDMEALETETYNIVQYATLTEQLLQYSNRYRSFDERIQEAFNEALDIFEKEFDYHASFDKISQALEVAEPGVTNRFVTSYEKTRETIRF

T2: StkP-FLAG^2 (Streptococcus pneumoniae (strain D39 …, UniProt Q8DNS0 1-659))
T2 sequence: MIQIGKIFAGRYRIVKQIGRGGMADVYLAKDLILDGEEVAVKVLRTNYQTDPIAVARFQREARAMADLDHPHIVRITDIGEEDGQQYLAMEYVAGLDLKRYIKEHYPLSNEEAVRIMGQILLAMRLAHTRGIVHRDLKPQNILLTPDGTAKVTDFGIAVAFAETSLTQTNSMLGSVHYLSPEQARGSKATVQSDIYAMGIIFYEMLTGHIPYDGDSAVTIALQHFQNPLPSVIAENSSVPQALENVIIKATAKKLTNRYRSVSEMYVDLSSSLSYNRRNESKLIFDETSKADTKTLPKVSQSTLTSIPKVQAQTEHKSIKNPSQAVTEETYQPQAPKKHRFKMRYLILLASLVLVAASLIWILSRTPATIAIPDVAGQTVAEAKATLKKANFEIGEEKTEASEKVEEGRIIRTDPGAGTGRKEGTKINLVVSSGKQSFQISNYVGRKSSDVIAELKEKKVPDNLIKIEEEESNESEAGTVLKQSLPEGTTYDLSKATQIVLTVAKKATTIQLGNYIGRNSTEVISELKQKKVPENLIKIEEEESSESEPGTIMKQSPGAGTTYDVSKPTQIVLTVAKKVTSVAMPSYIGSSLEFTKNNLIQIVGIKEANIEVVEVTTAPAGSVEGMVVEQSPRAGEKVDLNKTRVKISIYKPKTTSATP

T3: GpsB-L-FLAG^3 (Streptococcus pneumoniae (strain D39 …, UniProt Q8DR57 1-109))
T3 sequence: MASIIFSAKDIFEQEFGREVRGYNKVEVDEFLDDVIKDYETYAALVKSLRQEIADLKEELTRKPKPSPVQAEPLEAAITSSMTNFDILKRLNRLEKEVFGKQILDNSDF


Key:
Assay in all cases: co-IP
[1] = target: T1, EzrA-L-FLAG^3
[2] = target: T2, StkP-FLAG^2
[3] = target: T3, GpsB-L-FLAG^3

Binder	ratio of prey protein band, EzrA-L-FLAG^3 bait to EzrA^+ control [1] [ratio]	ratio of prey protein band, StkP-FLAG^2 bait to StkP^+ control [2] [ratio]	ratio of prey protein band, GpsB-L-FLAG^3 bait to GpsB^+ control [3] [ratio]
FtsZ-Myc (natural protein) MTFSFDTAAAQGAVIKVIGVGGGGGNAINRMVDEGVTGVEFIAANTDVQALSSTKAETVIQLGPKLTRGLGAGGQPEVGRKAAEESEETLTEAISGADMVFITAGMGGGSGTGAAPVIARIAKDLGALTVGVVTRPFGFEGSKRGQFAVEGINQLREHVDTLLIISNNNLLEIVDKKTPLLEALSEADNVLRQGVQGITDLITNPGLINLDFADVKTVMANKGNALMGIGIGSGEERVVEAARKAIYSPLLETTIDGAEDVIVNVTGGLDLTLIEAEEASQIVNQAAGQGVNIWLGTSIDESMRDEIRVTVVATGVRQDRVEKVVAPQARSATNYRETVKPAHSHGFDRHFDMAETVELPKQNPRRLEPTQASAFGDWDLRRESIVRTTDSVVSPVERFEAPISQDEDELDTPPFFKNR	15	–	–
bPBP2x-HA (enzyme) MKWTKRVIRYATKNRKSPAENRRRVGKSLSLLSVFVFAIFLVNFAVIIGTGTRFGTDLAKEAKKVHQTTRTVPAKRGTIYDRNGVPIAEDATSYNVYAVIDENYKSATGKILYVEKTQFNKVAEVFHKYLDMEESYVREQLSQPNLKQVSFGAKGNGITYANMMSIKKELEAAEVKGIDFTTSPNRSYPNGQFASSFIGLAQLHENEDGSKSLLGTSGMESSLNSILAGTDGIITYEKDRLGNIVPGTEQVSQRTMDGKDVYTTISSPLQSFMETQMDAFQEKVKGKYMTATLVSAKTGEILATTQRPTFDADTKEGITEDFVWRDILYQSNYEPGSTMKVMMLAAAIDNNTFPGGEVFNSSELKIADATIRDWDVNEGLTGGRTMTFSQGFAHSSNVGMTLLEQKMGDATWLDYLNRFKFGVPTRFGLTDEYAGQLPADNIVNIAQSSFGQGISVTQTQMIRAFTAIANDGVMLEPKFISAIYDPNDQTARKSQKEIVGNPVSKDAASLTRTNMVLVGTDPVYGTMYNHSTGKPTVTVPGQNVALKSGTAQIADEKNGGYLVGLTDYIFSAVSMSPAENPDFILYVTVQQPEHYSGIQLGEFANPILERASAMKDSLNLQTTAKALEQVSQQSPYPMPSVKDISPGDLAEELRRNLVQPIVVGTGTKIKNSSAEEGKNLAPNQQVLILSDKAEEVPDMYGWTKETAETLAKWLNIELEFQGSGSTVQKQDVRANTAIKDIKKITLTLGD	–	3.4	–
EzrA-HA (natural protein) MSNGQLIYLMVAIAVILVLAYVVAIFLRKRNEGRLEALEERKEELYNLPVNDEVEAVKNMHLIGQSQVAFREWNQKWVDLSLNSFADIENNLFEAEGYNHSFRFLKASHQIDQIESQITLIEEDIAAIRNALADLEKQESKNSGRVLHALDLFEELQHRVAENSEQYGQALDEIEKQLENIQSEFSQFVTLNSSGDPVEAAVILDNTENHILALSHIVDRVPALVTTLSTELPDQLQDLEAGYRKLIDANYHFVETDIEARFHLLYEAFKKNQENIRQLELDNAEYENGQAQEEINALYDIFTREIAAQKVVENLLATLPTYLQHMKENNTLLGEDIARLNKTYLLPETAASHVRRIQTELESFEAAIVEVTSNQEEPTQAYSVLEENLEDLQTQLKDIEDEQISVSERLTQIEKDDINARQKANVYVNRLHTIKRYMEKRNLPGIPQTFLKLFFTASNNTEDLMVELEQKMINIESVTRVLEIATNDMEALETETYNIVQYATLTEQLLQYSNRYRSFDERIQEAFNEALDIFEKEFDYHASFDKISQALEVAEPGVTNRFVTSYEKTRETIRF	–	–	5.4
aPBP2a-HA^4 (enzyme) MKLDKLFEKFLSLFKKETSELEDSDSTILRRSRSDRKKLAQVGPIRKFWRRYHLTKIILILGLSAGLLVGIYLFAVAKSTNVNDLQNALKTRTLIFDREEKEAGALSGQKGTYVELTDISKNLQNAVIATEDRSFYKNDGINYGRFFLAIVTAGRSGGGSTITQQLAKNAYLSQDQTVERKAKEFFLALELSKKYSKEQILTMYLNNAYFGNGVWGVEDASKKYFGVSASEVSLDQAATLAGMLKGPELYNPLNSVEDSTNRRDTVLQNMVAAGYIDKNQETEAAEVDMTSQLHDKYEGKISDYRYPSYFDAVVNEAVSKYNLTEEEIVNNGYRIYTELDQNYQANMQIVYENTSLFPRAEDGTFAQSGSVALEPKTGGVRGVVGQVADNDKTGFRNFNYATQSKRSPGSTIKPLVVYTPAVEAGWALNKQLDNHTMQYDSYKVDNYAGIKTSREVPMYQSLAESLNLPAVATVNDLGVDKAFEAGEKFGLNMEKVDRVLGVALGSGVETNPLQMAQAYAAFANEGLMPEAHFISRIENASGQVIASHKNSQKRVIDKSVADKMTSMMLGTFTNGTGISSSPADYVMAGKTGTTEAVFNPEYTSDQWVIGYTPDVVISHWLGFPTTDENHYLAGSTSNGAAHVFRNIANTILPYTPGSTFTVENAYKQNGIAPANTKRQVQTNDNSQTDDNLSDIRGRAQSLVDEASRAISDAKIKEKAQTIWDSIVNLFR	–	–	4
MreC (natural protein) MNRFKKSKYVIIVFVTVLLVSALLATTYSSTIVTKLGDGISLVDRVVQKPFQWFDSVKSDLAHLTRTYNENESLKKQLYQLEVKSNEVESLKTENEQLRQLLDMKSKLQATKTLAADVIMRSPVSWKQELTLDAGRSKGASENMLAIANGGLIGSVSKVEENSTIVNLLTNTENADKISVKIQHGSTTIYGIIIGYDKENDVLKISQLNSNSDISAGDKVTTGGLGNFNVADIPVGEVVATTHSTDYLTREVTVKLSADTHNVDVIELVGNS	–	8.5	6.2
bPBP2b-HA (enzyme) MRKFNSHSIPIRLNLLFSIVILLFMTIIGRLLYMQVLNKDFYEKKLASASQTKITSSSARGEIYDASGKPLVENTLKQVVSFTRSNKMTATDLKETAKKLLTYVSISSPNLTERQLADYYLADPEIYKKIVEALPSEKRLDSDGNRLSESELYNNAVDSVQTSQLNYTEDEKKEIYLFSQLNAVGNFATGTIATDPLNDSQVAVIASISKEMPGISISTSWDRKVLETSLSSIVGSVSSEKAGLPAEEAEAYLKKGYSLNDRVGTSYLEKQYEETLQGKRSVKEIHLDKYGNMESVDTIEEGSKGNNIKLTIDLAFQDSVDALLKSYFNSELENGGAKYSEGVYAVALNPKTGAVLSMSGIKHDLKTGELTPDSLGTVTNVFVPGSVVKAATISSGWENGVLSGNQTLTDQSIVFQGSAPINSWYTQAYGSFPITAVQALEYSSNTYMVQTALGLMGQTYQPNMFVGTSNLESAMEKLRSTFGEYGLGTATGIDLPDESTGFVPKEYSFANYITNAFGQFDNYTPMQLAQYVATIANNGVRVAPRIVEGIYGNNDKGGLGDLIQQLQPTEMNKVNISDSDMSILHQGFYQVAHGTSGLTTGRAFSNGALVSISGKTGTAESYVADGQQATNTNAVAYAPSDNPQIAVAVVFPHNTNLTNGVGPSIARDIINLYQKYHPMN	–	8.1	18.3
